± gives the standard deviation of the averaged measurements.
Tested on: Saccharomyces cerevisiae
Test: protein stability index of tFT-peptide fusion (C-terminal peptide) (PSI (0-1 scale)); higher = more stable (slower turnover)
Conditions: genetic background: wild type; temperature: 30 C
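Further: PSI is a weighted mean of sequencing reads over stability bins, variants kept only with over 10 reads, mCherry proximal and sfGFP distal, peptide attached via GGGS linker.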

Sequence	protein stability index
VSLGNVGYFGSE	0.734 ± 0.039
VSLLSLRAFYKL	0.667 ± 0.05
VSLSPVFLGFYR	0.706 ± 0.024
VSLVGGLGFGVG	0.553 ± 0.028
VSQLGTYICSYL	0.687 ± 0.053
VSRACYTPPQFY	0.68 ± 0.13
VSRCHLLDLSLV	0.642 ± 0.024
VSRGHTEWVGMV	0.702 ± 0.11
VSRWVVCRGGLW	0.65 ± 0.078
VSSVVTTSAIKR	0.715 ± 0.027
VSTPSPPSDSTP	0.685 ± 0.051
VSTRSTVVVSSL	0.662 ± 0.02
VSVIPIVISLSL	0.528 ± 0.036
VSVRGREGLDWK	0.698 ± 0.019
VSVSDSKMARLG	0.676 ± 0.055
VSVSRGTNCCYD	0.686 ± 0.023
VSVSSFCVLQSC	0.547 ± 0.008
VSWGVALAVLRT	0.603 ± 0.029
VSYEFHTRVSKN	0.677 ± 0.039
VSYEGIVKDGSG	0.647 ± 0.083
VTDTFKFYCERL	0.7274 ± 0.0051
VTFFAFPLFFGF	0.602 ± 0.041
VTHSASFSDVFR	0.731 ± 0.034
VTKESPSLCLCV	0.588 ± 0.041
VTLGLSMVQWTY	0.5702 ± 0.0025

Sequence	protein stability index
VTLRASGQVFPF	0.7891 ± 0.0069
VTMQEKTCQLEA	0.705 ± 0.1
VTRGGRVFIVDL	0.807 ± 0.094
VVELRGEKLVGR	0.6784 ± 0.005
VVEYCEGKAVYF	0.695 ± 0.025
VVFISGVYCSRL	0.688 ± 0.1
VVFTTLRHPFRG	0.699 ± 0.027
VVGCCVTKGGGA	0.667 ± 0.048
VVGRLRGNWGSI	0.745 ± 0.039
VVGWGWGGVVRR	0.763 ± 0.02
VVIGCRRVLGCV	0.583 ± 0.03
VVLFFGPRWSLG	0.624 ± 0.068
VVLSASAALFTF	0.578 ± 0.029
VVLWGAVSIVRT	0.616 ± 0.028
VVPDSGESSASG	0.654 ± 0.098
VVVARGGEEGWW	0.656 ± 0.12
VVVLCGGSGGVG	0.652 ± 0.059
VVVSGGGAGFWL	0.728 ± 0.019
VVWGGWGGWGCW	0.81 ± 0.17
VVYWGFVLGFGA	0.582 ± 0.055
VWGERPRFGGWG	0.691 ± 0.038
VWGGGRGGGGKG	0.619 ± 0.031
VWGGNGRAASQL	0.742 ± 0.019
VWGLGWEFWWGV	0.7157 ± 0.0021
VWIGMSLSSLVM	0.512 ± 0.011

Sequence	protein stability index
VWLSRLVFLSPL	0.602 ± 0.0046
VWRGCRVGGQGM	0.687 ± 0.042
VWRGPVVAAGWG	0.659 ± 0.018
VWRSERCRRGGV	0.699 ± 0.15
VWSGGDGGGAVV	0.733 ± 0.051
VWSILSCRTRLL	0.503 ± 0.02
VWSPGGGAFVGG	0.815 ± 0.047
VWTPWSTKDCLG	0.721 ± 0.054
VYDASLPIRFFL	0.697 ± 0.013
VYFLDPSSPPWF	0.752 ± 0.011
VYRGSQKQRAQG	0.685 ± 0.024
VYRIAEENRRWV	0.738 ± 0.12
VYRMYTLKRVKR	0.686 ± 0.062
WAGQWCRGRAGG	0.728 ± 0.056
WAIYPDVESVIP	0.773 ± 0.0081
WALLAAGGGGRG	0.651 ± 0.074
WARLHLSGRYSL	0.747 ± 0.02
WAVGRGLVLSST	0.684 ± 0.042
WCECGVWGGLWG	0.719 ± 0.021
WCGKVVVGSRQG	0.68 ± 0.032
WCLVTRGGDRDL	0.6727 ± 0.0047
WCRHREYFYGSN	0.657 ± 0.032
WCSVGVSGFVIR	0.725 ± 0.0075
WDGWPTRSGGTG	0.738 ± 0.023
WDSPVMCVTIID	0.628 ± 0.0094

Sequence	protein stability index
WDYQGIIFVAGG	0.687 ± 0.0075
WEQQTSLPLLSL	0.712 ± 0.021
WFAGRDRHRAND	0.745 ± 0.1
WFCDNHRSFGWG	0.747 ± 0.07
WFFPPLPPPLPR	0.686 ± 0.04
WFLCCFGGVSLV	0.619 ± 0.0064
WFLFIPLACLRP	0.592 ± 0.0079
WFLVQQCGQMDR	0.711 ± 0.022
WFNRRISPISGI	0.676 ± 0.059
WFSRVSSASRRS	0.7073 ± 0.00084
WGACSALRRLGY	0.684 ± 0.044
WGAGGGGWGGGV	0.685 ± 0.024
WGEGCGSSEEGE	0.695 ± 0.087
WGFVCWGCGGCS	0.746 ± 0.028
WGGEVGQLLELW	0.714 ± 0.048
WGGGCGRRIGCR	0.7193 ± 0.007
WGGGGGGSGACL	0.6974 ± 0.0069
WGGGPGLRVVGG	0.731 ± 0.026
WGGGRGTAVVGV	0.657 ± 0.028
WGGRSVGGVVWR	0.714 ± 0.036
WGLCIGTGWALG	0.708 ± 0.0092
WGLGLYEENTGC	0.7468 ± 0.003
WGRCGSVGRGGA	0.749 ± 0.024
WGRGHPIYVCRV	0.689 ± 0.013
WGRRCRFIFRGM	0.654 ± 0.074

Sequence	protein stability index
WGSSGCLFGTVG	0.769 ± 0.12
WGSSGWVGEGGG	0.657 ± 0.044
WGTGGRRGVGHV	0.709 ± 0.066
WGVGWSGRVGGS	0.647 ± 0.045
WGWGVASRCCEG	0.72 ± 0.042
WGYWGGVMGLEE	0.738 ± 0.043
WHDLDRGSFRAV	0.669 ± 0.023
WITAYFPLHSSE	0.714 ± 0.036
WLCGSIGHAMLG	0.739 ± 0.062
WLFDFECRCILG	0.65 ± 0.11
WLFDRLPFNAEN	0.715 ± 0.046
WLFRGELCGGAN	0.588 ± 0.014
WLGAYVRAWSVA	0.533 ± 0.0011
WLGGGGGMQGVR	0.669 ± 0.057
WLRTGNVLQELL	0.699 ± 0.03
WLVCGRSFVFTL	0.549 ± 0.058
WLVFRISLLRFD	0.541 ± 0.026
WLVRHLGFVPWI	0.7 ± 0.028
WLWLGFNRVFFY	0.511 ± 0.033
WMAFRRIPTWSG	0.679 ± 0.073
WMSLLEFGSLCG	0.748 ± 0.15
WPGYLTNVLPVI	0.65 ± 0.029
WPSTLHRGLSLP	0.702 ± 0.074
WRCAGVGGVGGG	0.708 ± 0.012
WRGIFPSRFCLS	0.62 ± 0.039

Sequence	protein stability index
WRGRWVWGVGEV	0.628 ± 0.069
WRLAGRRGIQCD	0.7 ± 0.017
WRLCWWVVESGG	0.639 ± 0.02
WRPPPPYSPFSL	0.74 ± 0.066
WRRLVGGVAWLW	0.726 ± 0.08
WRVVTPPSVDHR	0.677 ± 0.015
WSAPHPVCSPPS	0.697 ± 0.0093
WSGERCFLGFYR	0.771 ± 0.087
WSPVPVPPPLPT	0.722 ± 0.083
WSSCISCLLRGV	0.688 ± 0.066
WSSSRPASGSSA	0.708 ± 0.016
WSSVLGYFSRKE	0.702 ± 0.024
WTAITDRRSRPD	0.616 ± 0.063
WTDHISEHLHTV	0.742 ± 0.039
WTFEYRNHKMKK	0.7149 ± 0.0071
WVAFTRGGCGHC	0.66 ± 0.017
WVCARQVGIGWG	0.6657 ± 0.0019
WVCCVGAGFLVV	0.594 ± 0.03
WVCRGSSLKSSI	0.677 ± 0.058
WVFRHSTMNNEN	0.672 ± 0.094
WVGEVSMGVRAG	0.666 ± 0.014
